B1: Integrin beta-3 (Homo sapiens), P05106 (parent)
chain: MRARPRPRPLWATVLALGALAGVGVGGPNICTTRGVSSCQQCLAVSPMCAWCSDEALPLGSPRCDLKENLLKDNCAPESIEFPVSEARVLEDRPLSDKGSGDSSQVTQVSPQRIALRLRPDDSKNFSIQVRQVEDYPVDIYYLMDLSYSMKDDLWSIQNLGTKLATQMRKLTSNLRIGFGAFVDKPVSPYMYISPPEALENPCYDMKTTCLPMFGYKHVLTLTDQVTRFNEEVKKQSVSRNRDAPEGGFDAIMQATVCDEKIGWRNDASHLLVFTTDAKTHIALDGRLAGIVQPNDGQCHVGSDNHYSASTTMDYPSLGLMTEKLSQKNINLIFAVTENVVNLYQNYSELIPGTTVGVLSMDSSNVLQLIVDAYGKIRSKVELEVRDLPEELSLSFNATCLNNEVIPGLKSCMGLKIGDTVSFSIEAKVRGCPQEKEKSFTIKPVGFKDSLIVQVTFDCDCACQAQAEPNSHRCNNGNGTFECGVCRCGPGWLGSQCECSEEDYRPSQQDECSPREGQPVCSQRGECLCGQCVCHSSDFGKITGKYCECDDFSCVRYKGEMCSGHGQCSCGDCLCDSDWTGYYCNCTTRTDTCMSSNGLLCSGRGKCECGSCVCIQPGSYGDTCEKCPTCPDACTFKKECVECKKFDRGALHDENTCNRYCRDEIESVKELKDTGKDAVNCTYKNEDDCVVRFQYYEDSSGKSILYVVEEPECPKGPDILVVLLSVMGAILLIGLAALLIWKLLITIHDRKEFAKFEEERARAKWDTANNPLYKEATSTFTNITYRGT

Variants of: B1
Conditions: with ita2b_human ITGA2B

Variant	effect of a mutation on the interaction
I719A	decreasing interaction

Variants of: B1
Conditions: with ita2b_human ITGA2B
Remark: another data set of the same source

Variant	effect of a mutation on the interaction
W741Y	decreasing interaction

Variants of: B1
Conditions: with ita2b_human ITGA2B
Remark: another data set of the same source

Variant	effect of a mutation on the interaction
D749A	decreasing interaction

Variants of: B1
Conditions: with ita2b_human ITGA2B
Remark: another data set of the same source

Variant	effect of a mutation on the interaction
L738A	decreasing interaction
